Data as given in patent US20190271710A1 (Janssen / Centocor, published 2019).

T1: calibrant peptide pT3xhT43 (two phosphothreonines (pT) in GSRSR(pT)PSLP(pT)PPTREPKKV; dPEG4 linkers between the three segments; C-terminal amide)
T1 construct: Molecular weight 6893 g/mol
T1 peptide: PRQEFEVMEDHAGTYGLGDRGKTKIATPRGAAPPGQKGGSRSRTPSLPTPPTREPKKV

T2: calibrant peptide pT3xpT82 (N-terminal acetyl; dPEG4 linker between the two segments; two phosphothreonines (pT) in GSRSR(pT)PSLP(pT)PPTREPKKV; C-terminal amide)
T2 construct: Molecular weight 4551 g/mol
T2 peptide: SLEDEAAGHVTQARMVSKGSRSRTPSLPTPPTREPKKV


Experiments:
[1] = target: T1, calibrant peptide pT3xhT43; assay: Simoa pT3xhT43 sandwich assay, calibrant titrated 30 to 0.041 pg/ml
Method: (§1) The calibrant peptides were reconstituted to 5 mg/ml in 0.1% phosphoric acid/water, aliquoted to 20 ul and frozen. When ready for use, the calibrant peptide aliquots were thawed and diluted 1:1000 (e.g. 1.5 ul into 1498.5 ul), and the dilutions were diluted […] so that the final concentration of the peptides was 5000 pg/ml. A standard curve with 3× jumps was made, starting at 30 pg/ml.
(§2) Calibrant peptides described in Example 1 were produced. The calibrant peptides contained the core epitopes of pT3 and hT43, or pT3 and pT82 separated by PEG4 linkers, and they were used to generate standard curves. Calibrant peptides were titrated from 30 pg/ml to 0.041 pg/ml in 1:3 jumps in assay buffer and measured with the pT3xhT43 and pT3xpT82 assays. A 4-parameter curve fit data reduction method (4PL, 1/y2 weighted) was used to generate the calibration curve. The lower limit of detection (LLOD) was defined as the calculated calibrant level yielding an AEB equal to the average of the zero calibrator+2.5 standard deviations (SD), including 10% coefficient of variation (CV). With these criteria, the representative data yielded an LLOD of 0.002 pg/ml. The Linear Range of the assay, lower limit of quantification (LLOQ) and upper limit of quantification (ULOQ), was defined as the lowest and highest standard curve points achieving CV<20% and recovery 80-120% of expected. […]

[2] = target: T2, calibrant peptide pT3xpT82; assay: Simoa pT3xpT82 sandwich assay, calibrant titrated 30 to 0.041 pg/ml
Method: as §1, §2

Binder	binding result [1]	binding result [2]
pT3 mouse monoclonal antibody (antibody, V domains shown, Parental mouse mAb expressed by a mouse hybridoma; Used on capture beads, and as soluble antibody in spiking experiments; also called pT3 mAb) VH: EVKLVESGGDLVKPGGSLKLSCAASGFTFSSYAMSWVRQNPEKRLEWVASISKGGNTYYPNSVKGRFTISRDNARNILYLQMSSLRSEDTALYYCARGWGDYGWFAYWGQVTLVTVSA VL: DIKMTQSPSSMYASLGERVTITCKASQDINRYLNWFQQKPGKSPKTLIYRANRLLDGVPSRFSGSGSGQDYSLTISSLDYEDMGIYYCLQYDEFPLTFGDGTKLELK	binds	
pT82 mAb (antibody, V domains shown, The majority assignment is used) VH: EVKLEESGGGLVQPGGSMKLSCVASGFTFSNYWMNWIRQSPEKGLEWVAQIRLQSDNYATRYAESVKGRFTISRDESKTSVYLQMNNLRTEDTGIYYCTGGTTYWGQGTLVTVSA VL: DIVMTQSQKFMSTSVGDRVSITCKASQNVGTAVAWYQQKPGQSPKLLIYSASIRYTGVPDRFTGSGSGTDFTLTINYMQSEDLADYFCQQFSSYPYTFGGGTKLEIK		binds
